Numbered stars: 1 amine (or outer) side, 2 acyl side, 3 side chain; on linkers, the order of the positions; unused ones are H or OH. Square brackets hold non-standard residues; d marks the D form. Ends that are not written are not given here. * marks the point of attachment. Tyr(OMe) = O-methyl-tyrosine, COc1ccc(C[C@H](N[*:1])C(=O)[*:2])cc1; Orn = NCCC[C@H](N)C(=O)O; Hexanoyl = CCCCCC(=O)*; Aib = CC(C)(N)C(=O)O
Biological target: T1, rat VPAC1 receptor (rat, UniProt P30083 31-459)
T1 sequence (looked up): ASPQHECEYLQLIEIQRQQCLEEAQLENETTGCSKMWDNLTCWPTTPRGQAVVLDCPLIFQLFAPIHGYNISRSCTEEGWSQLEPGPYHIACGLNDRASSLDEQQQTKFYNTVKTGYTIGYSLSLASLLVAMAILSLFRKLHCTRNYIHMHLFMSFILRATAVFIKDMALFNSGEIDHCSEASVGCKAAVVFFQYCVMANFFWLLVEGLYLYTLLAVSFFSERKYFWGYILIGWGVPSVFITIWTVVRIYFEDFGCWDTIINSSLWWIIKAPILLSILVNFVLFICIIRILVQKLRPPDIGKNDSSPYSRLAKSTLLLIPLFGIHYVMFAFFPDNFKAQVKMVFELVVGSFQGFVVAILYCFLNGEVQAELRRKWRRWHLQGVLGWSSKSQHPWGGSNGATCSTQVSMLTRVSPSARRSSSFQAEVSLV
Test: cell-based or functional assay

Compared with Hexanoyl-HSDAVFTDQYT[Orn]LR[Aib]QVAA[Aib]KYLQSI[Orn]Q[Orn]GGPSSGAPPPS [VPAC2 receptor peptide agonist P363], HSDAVFTDNYTXLRXQVSAXKYLQSIXNXGGPSSGAPPPS (N-terminal hexanoyl (C6); Orn at 12, 27 and 29; Aib at 15 and 20) [VPAC2 receptor peptide agonist P388] is higher in “Rat VPAC1 Receptor: DiscoveRx (EC50; nM), cAMP generation” value (from here on “Rat VPAC1 Receptor: DiscoveRx”): 1.44 nM for the first, over 2000 nM for the second.

Compared with HSDAVFTDNYTXLRXQVASXKYLQSIXNXGGPSSGAPPPS (N-terminal hexanoyl (C6); Orn at 12, 27 and 29; Aib at 15 and 20) [VPAC2 receptor peptide agonist P387], Hexanoyl-HSEAVFTENYT[Orn]LR[Aib]QVAA[Aib]KYLQSI[Orn]N[Orn]GGPSSGAPPPS [VPAC2 receptor peptide agonist P362] is 1.8-fold higher in “Rat VPAC1 Receptor: DiscoveRx” value: 20.4 nM for the first, 35.9 nM for the second.

Compared with HSDAVFTDNYTXLRXQVAAXKYLSSIXNXGGPSSGAPPPS (N-terminal hexanoyl (C6); Orn at 12, 27 and 29; Aib at 15 and 20) [VPAC2 receptor peptide agonist P383], HSDAVFTDNYTXLRXQVAAXKYSQSIXNXGGPSSGAPPPS (N-terminal hexanoyl (C6); Orn at 12, 27 and 29; Aib at 15 and 20) [VPAC2 receptor peptide agonist P384] is higher in “Rat VPAC1 Receptor: DiscoveRx” value: 1.68 nM for the first, over 600 nM for the second.

First: Hexanoyl-HSDAVFTDQ[Tyr(OMe)]TR[Aib]R[Aib]QLAA[Aib]KYLQSIK[Aib]KGGPSSGAPPPS [VPAC2 receptor peptide agonist P408]
Second: Hexanoyl-HSDAVFTDNYTRLLAKLALQKYLQSI[Orn]N[Orn]GGPSSGAPPPS [VPAC2 receptor peptide agonist P370]
The “Rat VPAC1 Receptor: DiscoveRx” value of the first is 7-fold higher: 0.35 nM for the first, 0.05 nM for the second.

For HSDAVFTDNYTXLRXQVAAXKYLQSIKNKRYGGPSSGAPPPS (N-terminal hexanoyl (C6); hR (homoarginine) at 12; Aib at 15 and 20) [VPAC2 receptor peptide agonist P343], the “Rat VPAC1 Receptor: DiscoveRx” value was 2.62 nM.

Biological target: T2, rat VPAC2 receptor (rat, UniProt P35000 23-437)
T2 sequence (looked up): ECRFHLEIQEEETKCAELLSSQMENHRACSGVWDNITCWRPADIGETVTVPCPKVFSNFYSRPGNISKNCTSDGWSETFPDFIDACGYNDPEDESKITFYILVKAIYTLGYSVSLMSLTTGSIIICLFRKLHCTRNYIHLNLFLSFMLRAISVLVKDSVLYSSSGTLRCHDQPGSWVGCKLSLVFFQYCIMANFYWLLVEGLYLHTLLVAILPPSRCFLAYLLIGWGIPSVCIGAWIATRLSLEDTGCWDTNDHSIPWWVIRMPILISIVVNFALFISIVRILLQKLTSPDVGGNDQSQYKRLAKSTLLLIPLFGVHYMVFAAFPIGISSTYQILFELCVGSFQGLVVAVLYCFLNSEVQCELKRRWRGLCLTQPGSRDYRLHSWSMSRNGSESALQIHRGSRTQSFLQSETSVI
Test: cell-based or functional assay

Compared with Hexanoyl-HSDAVFTDQYT[Orn]LR[Aib]QVAA[Aib]KYLQSI[Orn]Q[Orn]GGPSSGAPPPS [VPAC2 receptor peptide agonist P363], HSDAVFTDNYTXLRXQVSAXKYLQSIXNXGGPSSGAPPPS (N-terminal hexanoyl (C6); Orn at 12, 27 and 29; Aib at 15 and 20) [VPAC2 receptor peptide agonist P388] is 7900-fold higher in “Rat VPAC2 Receptor: DiscoveRx (EC50; nM), cAMP generation” value (“Rat VPAC2 Receptor: DiscoveRx” below): 0.09 nM for the first, 709 nM for the second.

First: HSDAVFTDNYTXLRXQVASXKYLQSIXNXGGPSSGAPPPS (N-terminal hexanoyl (C6); Orn at 12, 27 and 29; Aib at 15 and 20) [VPAC2 receptor peptide agonist P387]
Second: Hexanoyl-HSEAVFTENYT[Orn]LR[Aib]QVAA[Aib]KYLQSI[Orn]N[Orn]GGPSSGAPPPS [VPAC2 receptor peptide agonist P362]
The “Rat VPAC2 Receptor: DiscoveRx” value of the first is 3-fold lower: 0.4 nM for the first, 1.22 nM for the second.

Going from HSDAVFTDNYTXLRXQVAAXKYLSSIXNXGGPSSGAPPPS (N-terminal hexanoyl (C6); Orn at 12, 27 and 29; Aib at 15 and 20) [VPAC2 receptor peptide agonist P383] to HSDAVFTDNYTXLRXQVAAXKYSQSIXNXGGPSSGAPPPS (N-terminal hexanoyl (C6); Orn at 12, 27 and 29; Aib at 15 and 20) [VPAC2 receptor peptide agonist P384], the “Rat VPAC2 Receptor: DiscoveRx” value rises from 0.18 nM to 8.05 nM (45-fold).

Hexanoyl-HSDAVFTDQYTR[Aib]R[Aib]QVAA[Aib]KYLQSIK[Aib]KGGPSSGAPPPS [VPAC2 receptor peptide agonist P406] and Hexanoyl-HSDAVFTDQ[Tyr(OMe)]TR[Aib]R[Aib]QLAA[Aib]KYLQSIK[Aib]KGGPSSGAPPPS [VPAC2 receptor peptide agonist P408] are the same in “Rat VPAC2 Receptor: DiscoveRx” value: 0.04 nM for the first, 0.04 nM for the second.

Going from Hexanoyl-HSDAVFTDNYTRLLAKLALQKYLQSI[Orn]N[Orn]GGPSSGAPPPS [VPAC2 receptor peptide agonist P370] to HSDAVFTDNYTXLRXQVAAXKYLQSIKNKRYGGPSSGAPPPS (N-terminal hexanoyl (C6); hR (homoarginine) at 12; Aib at 15 and 20) [VPAC2 receptor peptide agonist P343], the “Rat VPAC2 Receptor: DiscoveRx” value rises from 0.05 nM to 0.15 nM (3-fold).

Biological target: T3, human VPAC2 receptor (human, UniProt P41587 24-438)
T3 sequence (looked up): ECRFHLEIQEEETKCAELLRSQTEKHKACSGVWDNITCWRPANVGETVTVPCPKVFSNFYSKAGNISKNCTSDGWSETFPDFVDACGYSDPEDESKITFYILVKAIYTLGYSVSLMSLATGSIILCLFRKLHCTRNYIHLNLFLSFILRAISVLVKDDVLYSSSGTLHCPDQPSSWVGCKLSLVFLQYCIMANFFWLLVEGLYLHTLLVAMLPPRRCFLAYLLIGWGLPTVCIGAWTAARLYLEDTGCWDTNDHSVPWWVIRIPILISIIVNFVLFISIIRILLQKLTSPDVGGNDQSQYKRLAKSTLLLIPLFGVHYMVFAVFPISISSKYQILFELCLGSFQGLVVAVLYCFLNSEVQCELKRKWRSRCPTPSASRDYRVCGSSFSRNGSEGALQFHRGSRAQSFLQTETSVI
Test: cell-based or functional assay

HSDAVFTDNYTXLRXQVAAXXYLQSIXXGGPSSGAPPPS (N-terminal hexanoyl (C6); Orn at 12, 21, 27 and 28; Aib at 15 and 20) [VPAC2 receptor peptide agonist P397] and Hexanoyl-HSDAVFTDNYT[Orn]LLAKLALQKYLQSI[Orn]N[Orn]GGPSSGAPPPS [VPAC2 receptor peptide agonist P371] are within 1.5-fold of each other in “Human VPAC2 Receptor: Alpha Screen (EC50; nM), cAMP generation” value (shortened to “Human VPAC2 Receptor: Alpha Screen”): 0.15 nM for the first, 0.13 nM for the second.

First: Hexanoyl-HSDAVFTDQYT[Orn]LR[Aib]QVAA[Aib]KYLQSI[Orn]Q[Orn]GGPSSGAPPPS [VPAC2 receptor peptide agonist P363]
Second: HSDAVFTDNYTXLRXQVSAXKYLQSIXNXGGPSSGAPPPS (N-terminal hexanoyl (C6); Orn at 12, 27 and 29; Aib at 15 and 20) [VPAC2 receptor peptide agonist P388]
The “Human VPAC2 Receptor: Alpha Screen” value of the first is 10000-fold lower: 0.27 nM for the first, 2760 nM for the second.

HSDAVFTDNYTXLRXQVASXKYLQSIXNXGGPSSGAPPPS (N-terminal hexanoyl (C6); Orn at 12, 27 and 29; Aib at 15 and 20) [VPAC2 receptor peptide agonist P387] and Hexanoyl-HSEAVFTENYT[Orn]LR[Aib]QVAA[Aib]KYLQSI[Orn]N[Orn]GGPSSGAPPPS [VPAC2 receptor peptide agonist P362] are within 1.5-fold of each other in “Human VPAC2 Receptor: Alpha Screen” value: 0.47 nM for the first, 0.58 nM for the second.

First: HSDAVFTDNYTXLRXQVAAXKYLSSIXNXGGPSSGAPPPS (N-terminal hexanoyl (C6); Orn at 12, 27 and 29; Aib at 15 and 20) [VPAC2 receptor peptide agonist P383]
Second: HSDAVFTDNYTXLRXQVAAXKYSQSIXNXGGPSSGAPPPS (N-terminal hexanoyl (C6); Orn at 12, 27 and 29; Aib at 15 and 20) [VPAC2 receptor peptide agonist P384]
The “Human VPAC2 Receptor: Alpha Screen” value of the first is 56-fold lower: 0.12 nM for the first, 6.7 nM for the second.

Hexanoyl-HSDAVFTDQYTR[Aib]R[Aib]QVAA[Aib]KYLQSIK[Aib]KGGPSSGAPPPS [VPAC2 receptor peptide agonist P406] and Hexanoyl-HSDAVFTDQ[Tyr(OMe)]TR[Aib]R[Aib]QLAA[Aib]KYLQSIK[Aib]KGGPSSGAPPPS [VPAC2 receptor peptide agonist P408] are the same in “Human VPAC2 Receptor: Alpha Screen” value: 0.12 nM for the first, 0.12 nM for the second.

Hexanoyl-HSDAVFTDNYTRLLAKLALQKYLQSI[Orn]N[Orn]GGPSSGAPPPS [VPAC2 receptor peptide agonist P370] and HSDAVFTDNYTXLRXQVAAXKYLQSIKNKRYGGPSSGAPPPS (N-terminal hexanoyl (C6); hR (homoarginine) at 12; Aib at 15 and 20) [VPAC2 receptor peptide agonist P343] are within 1.5-fold of each other in “Human VPAC2 Receptor: Alpha Screen” value: 0.23 nM for the first, 0.29 nM for the second.

Biological target: T3, human VPAC2 receptor
Test: filter binding, human VPAC2 membranes, competition with 125I-VIP;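 also: assay plate incubated 1 h with shaking, then filtered, with filter-retained counts measured after adding scintillant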
Experimental: The filled plate is incubated for 1 hour with shaking.
The transfer from assay plate to filter plate is conducted. The blocking buffer is aspirated by vacuum filtration and washed two times with flush buffer. 90 μL is transferred from the assay plate to the filter plate. The 90 μL transferred from assay plate is aspirated and washed three times with 200 μL flush buffer. The plastic support is removed. It is dried for 1 hour at 60° C. 30 μL Microscint is added. The count is performed.

HSDAVFTDNYTXLRXQVAAXXYLQSIXXGGPSSGAPPPS (N-terminal hexanoyl (C6); Orn at 12, 21, 27 and 28; Aib at 15 and 20) [VPAC2 receptor peptide agonist P397] and Hexanoyl-HSDAVFTDNYT[Orn]LLAKLALQKYLQSI[Orn]N[Orn]GGPSSGAPPPS [VPAC2 receptor peptide agonist P371] are within 1.5-fold of each other in IC50: 0.5 nM for the first, 0.34 nM for the second.

First: Hexanoyl-HSDAVFTDQYT[Orn]LR[Aib]QVAA[Aib]KYLQSI[Orn]Q[Orn]GGPSSGAPPPS [VPAC2 receptor peptide agonist P363]
Second: HSDAVFTDNYTXLRXQVSAXKYLQSIXNXGGPSSGAPPPS (N-terminal hexanoyl (C6); Orn at 12, 27 and 29; Aib at 15 and 20) [VPAC2 receptor peptide agonist P388]
The IC50 of the first is 400-fold lower: 0.25 nM for the first, 100 nM for the second.

HSDAVFTDNYTXLRXQVASXKYLQSIXNXGGPSSGAPPPS (N-terminal hexanoyl (C6); Orn at 12, 27 and 29; Aib at 15 and 20) [VPAC2 receptor peptide agonist P387] and Hexanoyl-HSEAVFTENYT[Orn]LR[Aib]QVAA[Aib]KYLQSI[Orn]N[Orn]GGPSSGAPPPS [VPAC2 receptor peptide agonist P362] are within 1.5-fold of each other in IC50: 1.39 nM for the first, 1.91 nM for the second.

Going from HSDAVFTDNYTXLRXQVAAXKYLSSIXNXGGPSSGAPPPS (N-terminal hexanoyl (C6); Orn at 12, 27 and 29; Aib at 15 and 20) [VPAC2 receptor peptide agonist P383] to HSDAVFTDNYTXLRXQVAAXKYSQSIXNXGGPSSGAPPPS (N-terminal hexanoyl (C6); Orn at 12, 27 and 29; Aib at 15 and 20) [VPAC2 receptor peptide agonist P384], the IC50 rises from 5.01 nM to 22.2 nM (4.4-fold). The first is the more potent here.

Compared with Hexanoyl-HSDAVFTDQYTR[Aib]R[Aib]QVAA[Aib]KYLQSIK[Aib]KGGPSSGAPPPS [VPAC2 receptor peptide agonist P406], Hexanoyl-HSDAVFTDQ[Tyr(OMe)]TR[Aib]R[Aib]QLAA[Aib]KYLQSIK[Aib]KGGPSSGAPPPS [VPAC2 receptor peptide agonist P408] is 1.8-fold higher in IC50: 0.27 nM for the first, 0.48 nM for the second.

Hexanoyl-HSDAVFTDNYTRLLAKLALQKYLQSI[Orn]N[Orn]GGPSSGAPPPS [VPAC2 receptor peptide agonist P370] and HSDAVFTDNYTXLRXQVAAXKYLQSIKNKRYGGPSSGAPPPS (N-terminal hexanoyl (C6); hR (homoarginine) at 12; Aib at 15 and 20) [VPAC2 receptor peptide agonist P343] are within 1.5-fold of each other in IC50: 0.8 nM for the first, 0.85 nM for the second.

From patent publication US20080194482A1, “Selective Apac2 Receptor Peptide Agonists” (priority 2005, published 2008)
